What all share (assay): SPR
The target in assay [1] is recombinant cynomolgus galectin-3 (cynomolgus).
In assay [2] the target is T1, recombinant rat galectin-3 (rat, UniProt P08699 1-262).
T1 chain: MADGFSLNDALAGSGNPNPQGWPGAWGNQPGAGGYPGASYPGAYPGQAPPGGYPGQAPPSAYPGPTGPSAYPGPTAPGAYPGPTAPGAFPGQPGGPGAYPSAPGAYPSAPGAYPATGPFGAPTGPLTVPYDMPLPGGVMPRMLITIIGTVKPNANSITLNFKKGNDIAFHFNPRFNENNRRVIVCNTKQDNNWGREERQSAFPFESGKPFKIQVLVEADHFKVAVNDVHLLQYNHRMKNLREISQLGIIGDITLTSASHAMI

The target of assay [3] is T2, recombinant mouse galectin-3, full length, His-tagged (mGal-3-FL-His Nter) (mouse, UniProt P16110 1-264).
T2 chain: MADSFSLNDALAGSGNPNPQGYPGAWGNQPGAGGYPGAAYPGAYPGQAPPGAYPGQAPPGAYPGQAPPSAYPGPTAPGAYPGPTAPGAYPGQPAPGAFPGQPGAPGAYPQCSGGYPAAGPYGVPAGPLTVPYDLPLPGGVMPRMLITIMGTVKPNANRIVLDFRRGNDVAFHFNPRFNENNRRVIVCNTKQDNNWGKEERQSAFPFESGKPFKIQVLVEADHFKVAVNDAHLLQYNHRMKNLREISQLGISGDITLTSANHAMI

B1: D11 anti-Gal-3 monoclonal antibody (hIgG1 format, LALA) (antibody, V domains shown)
VH: EVQLVESGGSLVKPGGSLRLSCAASGFTFSNYNMNWVRQAPGKGLEWISSIYGSSRYIYYADFVKGRFTISRDNAKNSLYLQMNSLRAEDTAVYYCVRSSYGGMDVWGRGTLVTVSS
VL: QSVLTQPASVSGSPGQSITISCAGTSSDVGGSYNVAWYQQHPGKAPKLMIYYDSYRPSGVSNRFSGSKSGNTASLTISGLQAEDEADYYCSSYTGYSTRVFGGGTKLEIK
For B1, the Kd in assay [1] stood at 11.4 nM; in assay [2], 8.6 nM.

B2: E07 anti-Gal-3 monoclonal antibody (hIgG1 format, LALA) (antibody, V domains shown)
VH: EVQLVESGGSLVKPGGSLRLSCAASGFTFSNYNMNWVRQAPGKGLEWISNIYGSSRYIYYADFVKGRFTISRDNAKNSLYLQMNSLRAEDTAVYYCVRSYYGGMDVWGRGTLVTVSS
VL: QSVLTQPASVSGSPGQSITISCAGTSSDVGGYYSVSWYQQHPGKAPKLMIYYDSNRPSGVSNRFSGSKSGNTASLTISGLQAEDEADYYCSSYTGYSTRVFGGGTKLEIK
For B2, the dissociation constant Kd in assay [1] came to 7.1 nM; in assay [3], 4.1 nM.
